Laboratory results as given in patent US20250011368A1, “DLL3 TARGETING PEPTIDES AND CONSTRUCTS THEREOF” (MARIANA ONCOLOGY INC., priority 2023, published 2025).
Numbered stars: 1 amine (or outer) side, 2 acyl side, 3 side chain; on linkers, the order of the positions; unused ones are H or OH. Bridge positions count the residues as written; N and C are the ends. Square brackets hold non-standard residues; d marks the D form. * marks the point of attachment. Ala(piperidin-4-yl) = O=C([C@H](CC1CCN([*:3])CC1)N[*:1])[*:2]; DOTA = O=C(O)CN1CCN(CC(=O)O)CCN(CC(=O)*)CCN(CC(=O)O)CC1; Ala(morpholin-4-yl) = N[C@@H](CN1CCOCC1)C(=O)O; 2Nal = N[C@@H](Cc1ccc2ccccc2c1)C(=O)O; 4Pal = N[C@@H](Cc1ccncc1)C(=O)O

T1: DLL3 on SHP-77 cells (human, UniProt Q9NYJ7 27-618)
T1 construct: SHP-77 cells are human-derived, non-engineered SCLC cells
T1 sequence: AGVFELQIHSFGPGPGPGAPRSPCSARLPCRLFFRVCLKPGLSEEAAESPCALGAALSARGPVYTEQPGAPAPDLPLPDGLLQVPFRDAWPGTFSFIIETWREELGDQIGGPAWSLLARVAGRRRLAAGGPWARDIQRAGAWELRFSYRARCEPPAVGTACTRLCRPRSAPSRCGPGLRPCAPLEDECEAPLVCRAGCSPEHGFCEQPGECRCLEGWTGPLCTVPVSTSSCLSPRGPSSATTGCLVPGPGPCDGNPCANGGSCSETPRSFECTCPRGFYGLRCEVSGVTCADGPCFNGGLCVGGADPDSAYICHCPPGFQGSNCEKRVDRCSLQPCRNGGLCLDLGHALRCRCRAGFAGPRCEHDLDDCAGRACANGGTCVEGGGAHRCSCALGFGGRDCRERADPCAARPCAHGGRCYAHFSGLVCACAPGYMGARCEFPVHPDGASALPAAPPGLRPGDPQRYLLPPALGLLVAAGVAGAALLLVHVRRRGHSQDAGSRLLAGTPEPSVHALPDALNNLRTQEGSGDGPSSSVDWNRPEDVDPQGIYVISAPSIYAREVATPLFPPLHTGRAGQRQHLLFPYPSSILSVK

T2: DLL3 on CT26.DLL3 cells (Homo sapiens (Human), UniProt Q9NYJ7 27-618)
T2 construct: CT26.DLL3 are engineered cells to express DLL3
T2 sequence: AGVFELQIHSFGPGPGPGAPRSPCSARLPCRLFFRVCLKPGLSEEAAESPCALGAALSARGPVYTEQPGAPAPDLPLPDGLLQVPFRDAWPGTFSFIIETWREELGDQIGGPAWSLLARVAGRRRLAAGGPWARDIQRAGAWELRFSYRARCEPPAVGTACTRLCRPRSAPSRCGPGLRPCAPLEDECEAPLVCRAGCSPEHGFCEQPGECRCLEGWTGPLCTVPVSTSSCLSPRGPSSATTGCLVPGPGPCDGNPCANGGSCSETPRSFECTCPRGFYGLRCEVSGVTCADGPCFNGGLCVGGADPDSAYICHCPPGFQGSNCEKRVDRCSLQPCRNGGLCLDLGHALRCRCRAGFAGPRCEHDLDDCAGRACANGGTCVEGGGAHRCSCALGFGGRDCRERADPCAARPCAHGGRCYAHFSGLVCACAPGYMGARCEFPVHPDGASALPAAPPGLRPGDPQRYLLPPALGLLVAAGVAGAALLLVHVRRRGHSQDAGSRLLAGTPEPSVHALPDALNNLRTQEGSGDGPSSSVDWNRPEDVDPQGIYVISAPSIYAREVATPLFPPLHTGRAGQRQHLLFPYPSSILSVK


What was measured:
[1] = target: T1, DLL3 on SHP-77 cells; assay: 177Lu-peptide bound to SHP-77 cells, gamma counting; letter grade, key in paragraph 629
Description: (§1) The study was conducted using SHP-77, CT26.WT, and CT26.DLL3 cells (Table 7) Adherent cell studies: The cells were cultured in appropriate culture media (20 mL) in tissue culture treated T150 flasks at 37° C. and 5% CO2. Adherent cells were detached (60-70% confluent) using 5 mL Versene at 37° C. for 3 minutes. After confirming the viability using countess and count of detached cells using Trypan blue, the cells were centrifuged at 4° C. for 5 minutes (1,000 rpm). The cell pellet obtained was washed once with PBS and resuspended in 1% PBSA to obtain the desired cell concentration (5-25 million cells/mL).
(§2) Total uptake: Cells were incubated with 300 μL (0.8 μCi) of the incubation buffer (containing radiolabeled peptide [¹⁷⁷Lu] Lu-test peptide) for 1 hour at 37° C. (Table 8). Post incubation, the cells were pelleted and washed 2 times using cold PBS+1% BSA. The supernatant and washes were combined and counted together as “unbound fraction” in a gamma counter. The cells were then resuspended in 300 μL of 1% PBS+1% BSA and counted in the gamma counter as “bound fraction”.

[2] = target: T2, DLL3 on CT26.DLL3 cells; assay: 177Lu-peptide bound to CT26.DLL3 cells, gamma counting; letter grade, key in paragraph 629
Description: as §1, §2

| Binder | % Binding [1] [%] | % Binding [2] [%] |
| --- | --- | --- |
| Ac-WTICNN[2Nal]HDCWP[dK](DOTA)-NH2 (disulfide 4-10; also: 177Lu in the DOTA chelator, also called [177Lu]Lu-test peptide) [[177Lu]Lu-labelled Cpd No. 75] | ≤ 25 | – |
| Ac-WTICNN[2Nal]HNCWP[dK](DOTA)-NH2 (disulfide 4-10; also: 177Lu chelated in DOTA, also called [177Lu]Lu-test peptide) [[177Lu]Lu-labelled Cpd No. 211] | – | ≤ 25 |
| Ac-WTICNNWHDCWP[dK](DOTA)-NH2 (disulfide 4-10; also: 177Lu chelated in DOTA, also called [177Lu]Lu-test peptide) [[177Lu]Lu-labelled Cpd No. 23] | ≤ 25 | ≤ 25 |
| Ac-WTICNN[2Nal]HDCWP[dK](DOTA)-NH2 (bridge 4-10; also: 177Lu chelated in DOTA, also called [177Lu]Lu-test peptide) [[177Lu]Lu-labelled Cpd No. 165] | ≤ 25 | – |

Further lines, results first:

| % Binding [1] [%] | % Binding [2] [%] | Binder |
| --- | --- | --- |
| – | ≤ 25 | Ac-WTICNN[2Nal]KDCWP[dK](DOTA)-NH2 (disulfide 4-10; also: 177Lu in the DOTA chelator, also called [177Lu]Lu-test peptide) [[177Lu]Lu-labelled Cpd No. 237] |
| – | ≤ 25 | Ac-WTICN[Ala(piperidin-4-yl)][2Nal]HDCWP[dK](DOTA)-NH2 (disulfide 4-10; also: 177Lu in the DOTA chelator, also called [177Lu]Lu-test peptide) [[177Lu]Lu-labelled Cpd No. 267] |
| – | ≤ 25 | Ac-WTICN[4Pal][2Nal]HDCWP[dK](DOTA)-NH2 (disulfide 4-10; also: 177Lu in the DOTA chelator, also called [177Lu]Lu-test peptide) [[177Lu]Lu-labelled Cpd No. 266] |
| – | ≤ 25 | Ac-WTIC[Ala(morpholin-4-yl)]N[2Nal]HDCWP[dK](DOTA)-NH2 (disulfide 4-10; also: 177Lu in the DOTA chelator, also called [177Lu]Lu-test peptide) [[177Lu]Lu-labelled Cpd No. 261] |
